Biological target: human recombinant Akt1-GST (not treated with H2O2) (human) (UniProt P31749)
Sequence of UniProt P31749 (P31749 whole entry): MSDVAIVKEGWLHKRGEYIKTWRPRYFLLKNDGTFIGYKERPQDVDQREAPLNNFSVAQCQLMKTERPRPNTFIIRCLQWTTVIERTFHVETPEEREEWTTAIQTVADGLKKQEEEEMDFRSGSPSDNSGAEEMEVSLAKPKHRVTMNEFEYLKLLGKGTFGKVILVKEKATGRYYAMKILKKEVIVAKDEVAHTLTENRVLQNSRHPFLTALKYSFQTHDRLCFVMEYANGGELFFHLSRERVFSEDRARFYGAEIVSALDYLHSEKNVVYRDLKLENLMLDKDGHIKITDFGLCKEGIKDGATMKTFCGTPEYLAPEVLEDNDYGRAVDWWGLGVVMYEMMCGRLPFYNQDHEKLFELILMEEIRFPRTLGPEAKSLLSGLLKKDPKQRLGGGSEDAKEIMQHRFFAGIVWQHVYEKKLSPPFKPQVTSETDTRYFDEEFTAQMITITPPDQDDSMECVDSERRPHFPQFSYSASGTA

- Akt1 activity (formation of P-GSK-3 α/β in vitro) of Akt1 immunoprecipitated from mitochondrial extracts of NIH cells treated with low to high H2O2; decreased to 45% of control at high H2O2: 150%
Substance: PDK1 (PI3K-dependent kinase 1) of NIH/3T3 mitochondrial fractions (from UniProt Q9Z2A0 1-559) (enzyme)

From paper PMC2761088
